From a protein production outcome set (Wang et al. 2014) come the findings set out here.

This data set can be described thus: label from the status in PepcDB records.

For the sequence “MSTDTCIKRPTRSELVDRFQKKIRAGEPIIGGGAGTGLSAKSEEAGDIDLIVIYNSGRYRMAGRGSLAGLLAYGNANQIVVDMAREVLPVVRHTPVLAGVNGTDPFMVMSTFLRELKEIGFAGVQNFPTVGLIDGLFRQNLEETGMSYAQEVEMIAEAHKLDLLTTPYVFSPEDAVAMAKAGADILVCHMGLTTGGAIGARSGKSMDDCVSLINECIEAARTIRDDIIILSHGGPIANPEDARFILDSCQGCHGFYGASSMERLPAEEAIRSQTLAFKAIRRQPA”, the protein production entry is “not failed”. With “MSTEQLLVLIAQNDIKDDIVDTLIELEFLSGFSLGNICGFSREHSHFNIKEQVEGYREFCKFEIMHPAAQQAALLTALALVCKHNPCRYWIMPIYQNGTLS” the entry was “not failed”; with “MSTIDFRPYGGFIFDMDGTLIDTMPAHLAAWQATADRFDFPFCQEWLHSLGGMPSFKIVAELNRHYGLSLDPQTVSKFKMETFAAMELQGDVIQCTGIVLEEYLGQKKIAVGTGSQRESAMRLLSHAGLIDRLDAVVTASDVENHKPCPDTFLLAADRLGIDAQNCLVFEDTELGKRAAHSAGMDCVMVEGNNLVFYPKR”, “not failed”; with “MSTIIETGKSDFIKVNVSNSHNDAVAFEVKLAKDLTVAQLKTKLEILTGGCAGTMKVQVFKGDTCVSTMDNNDAQLGYYANSDGLRLHVVDSFATFSFDSAPVEKFELSKDQYEQRTDSVRNYLKINRMGKYNDEEMQQAEEKKRLQAEEIQKRAELCVLGGRCEVTVPGNPTRRGTIRYNGPLEGKSGHFIGVEYDEPLGKNNGSFGGKAYFTCAPNYGGFVSPLSVTVGDFPPEDFNMDDEL”, “failed”. The value for “MSTILSLAPQNVWKHFYSLTQVPRPSGYLKKVQEFLLNFGKSVGVESFQDEAGNIIYRKPATPGMENRKKVILQAHMDMVPQKNNDTVHDFENDPIETYIDGDWVKAKGTTLGADDGMGVAAIMAIMEDKTLKHGPLEALITADEETGMFGAFGLKPGTVDGDILLNLDSEEEGELYIGCAGGEDLTAVLEYKEVETDPADIALKVTLKGLRGGHSGLEINEGRANANKLMARFMNQVITYDEACLVSWQGGNMRNAIPRECEVVITVPAEEEADVLEFVQECEALWNEEYHVHETPISFKAERVELPAMMVPDEIKDNLVDAIYACQNGVMRMIPTIPDTVETSSNLAIVSIGGGKAEIKILARSSRDSMKDYLNTALESCFSMAGMEVTRSGGYSGWEPNVDSPILKAMKESYKAQFGTEPAVKVIHAGLECGIIGAVVPGLDMISFGPTLRSPHSPDERCFIPSVGKFYDFVVATLENTPVKE” was “failed”; that for “MSTKKPAAAYSEASIKVLKGLEPVKQRPGMYTRTENPLHIIQEVIDNASDEALGGFGKQITVTLHPDQSVSVEDDGRGIPFGLHPEEKVPVVEIVFTRLHAGGKFDKAKGGAYTFSGGLHGVGVSVTNALATRLDVTVWRDGKIAQLGFADGDVVKPLATQGAGRGEKKSGTRVTVWPNPKYFDSPNLPLGELQRLLRSKAVLLPGVEVVLVNEKTGERQSWKYEDGLRGYLLDEMNGSELLIPLFEGERFADSRSGDDTFAEGEGASWVVAWSEEGSLVRESYVNLIPTPAGGTHESGLRDGLYQAVKSFVELHNLQPKGVKLLAEDVFARVSFVLSAKVLDPQFQGQIKERLNSRDAVKLVSSFTRPALELWLNQHVEHGKKLAELVIKQAQARTRAGQKIEKKKSSGVAVLPGKLTDCETEDIARNELFLVEGDSAGGSAKMGRDKEYQAILPLRGKVLNTWETERDRLFANNEVHDISVAIGVDPHGPDDSVDVSNLRYGKICILSDADVDGAHIQVLLLTLFFKHFPQLIERGHVFVARPPLFRVDAPARGKKPAQKLYALDEGELEAILDKLRKDGVRESQWTISRFKGLGEMSAEQLWDTTMNPDTRRLMPVALGELDFEATVARMTMLMGKGEAAARRNWLEEKGNEVEADI” was “failed”. For the sequence “MSTLPTPPRPRPVDIIIPVYKGLEETRLCLESVLATLPAADGLIVIDDHSPDPALVAYLKDRAAGDRRIRLLHNPENLGFVGTVNRGMALEPERDVLLLNSDTEVAGDWVARLRAAAYADRRIGTVTPFSNNATICSWPRFCQDNPLPPGLDVAGVDRAFAAANPGLSIDIPTGVGFAFYIRRDCLDEVGLFNAEAFGKGYGEENDFCRRAHHRGWRNVLAADTFVYHSGNVSFGVNQERLDSAMRQLLALHPDYRRVVQLHINQDPAQNMRWRAALGILRQSALPVLLFVTHNHGGGTLSHVHELAKALEGRAWGLLLTPGPRNTAVVTLPASLGGDALPFDLEQDWDGLLDLLRYAGVNRLHLHHMLGVPERLLDLPEQLSIPFDFTAHDFHAGCPRVMLCGPGSRYCGQPEERALCDACLAQAPKTEAGDITSWRAAMVARLSRAERLFAPSADTANRLKRMLPALSFRAIPHPDAQGLATNAPPPLLRPCGTTEPLRILVLGALSRAKGADLVEATAREAARGDLPLEIHLLGYGYRPLHRARGRLTAHGRYHPEEIAGHLERIAPHVAWLPAGWPETYSYTLSEVMAAGLPVVVSDLGAPPERILGRPLSWVLPWNVDASTAAAFFGRLRAGEIPASPEAPALSPQSTPRVDFYREGYLAEVFPEKARARLPEREIGELIGQALDRAGARRRRLQCWGDLKVVRQRIWRSLITLLAHPSLFPLVSRIPVSFQERLKRLIKG”, the protein production entry is on record as “failed”. With “MSTNQEKLFGRLLLKNDILQLIKNTDKISVSKIFSNFLLETKVNPILGMTSISSNKIKCNRCGTVHIKNSVKLPIGVFYCPSCIQLGRVRSDDFLYFLPQKNFPKKSYINWSGKLTENQKSISNALCQEINSHQQIIVQAVTGAGKTEMIYQVIEQILESGGVVGLASPRIDVCLELHQRLSRDFSCKIPLLYHDGDSYFRAPLIIMTSHQLLRFKEAFDLLIIDEVDAFPFRDNEMLYVAAEKARKIEGNLIYLTATSTDKLEKDIKKQKLYPLFLPRRFHNFPLVVPKFFWKNKFDKKLIEQRNSGFPLLIFAAEIEFGQEFAKQLQLKFPKEKIASVASTTKDRLEIVKAFRNKEITILIATSILERGVTFPNVDVFVINSEHPNFTKSALIQMAGRVGRSPERPTGLVSFFHYGKSKAMCQAVREIKKMNQLGCFS” the entry was “failed”; with “MSTNYIDCQLLNKMERQPSFSSFDCGDPFLDSFAPKKLANADANNDSRVYVAVDGDIGVGYATMKVFMLSNDEYKILSGKYPRQVPVVMLDQIAVDKAYQGKGIGKRLMRKVLEATVLVNELAAAKGLALWAHPRAKDFYESLGFEAIPDATKQVQDVELTLMFIHVETILDALK”, “failed”.

Regarding “MSTPDIGTFTVRPLDPTRDAELLHGWVTHPKSAFWMMQEARLHDVEREYMAIAASEYHDAFLGLLDDEPVFLMEKYDPAHVELVGLYEPEPGDVGMHFLVAPTDTPVHGFTRAVITAVMEHLFADPATRRVVVEPDVGNKAVHALNEAVGFVPEREIQKPEKKALLSFCTREQFAAAVRGAAV”, the protein production result was “not failed”.

For the sequence “MSTPLQGIKVLDFTGVQSGPSCTQMLAWFGADVIKIERPGVGDVTRHQLRDIPDIDALYFTMLNSNKRSIELNTKTAEGKEVMEKLIREADILVENFHPGAIDHMGFTWEHIQEINPRLIFGSIKGFDECSPYVNVKAYENVAQAAGGAASTTGFWDGPPLVSAAALGDSNTGMHLLIGLLAALLHREKTGRGQRVTMSMQDAVLNLCRVKLRDQQRLDKLGYLEEYPQYPNGTFGDAVPRGGNAGGGGQPGWILKCKGWETDPNAYIYFTIQEQNWENTCKAIGKPDWITDPAYSTAHARQPHIFDIFAEIEKYTVTIDKHEAVAYLTQFDIPCAPVLSMKEISLDPSLRQSGSVVEVEQPLRGKYLTVGCPMKFSAFTPDIKAAPLLGEHTAAVLQELGYSDDEIAAMKQNHAI”, the protein production result was “failed”.

Regarding “MSTPLTLIATITAAPGHAEALERELRALVAPSRAEAGCLQYDLHQDRHDSHLFYMIEQWRDDAALERHQNTEHFLRFSRGNEALLQNVKIDQLYRLA”, the protein production result is listed as “not failed”. The value for “MSTQFKLPLASPLTHGREDFAVSPSNGEAVARLDAWPDWAEGRLVLVGPAGCGKSHLARAWAAAAGAVVVEAANPDAASVDLSALRGRAVLVEDADRRAQGAAVSDEALFHILNMAGVDGGTVLLTGRTAPLTWSAEVADLRSRLNALSVAEIAEPDDAVLEAVLRRAFAAAWWKPEPDLYPYLLARLPRSAAEAQAAAALLAEAAADGRRELTKALAREVLEGFEGDEGLEHHHHHH” was “failed”. With “MSTQKQEQAFFGLVWLARLTVCLLTVGLALAIDSTATERHRADVRAKWQEKVDDLGLRLRATILQNTQTVWGLAANVAVQPDIGEERFQRLASVIFKLAPELLNIGLAPGFVIKHIYPLDGNEAALGLDLQAQSLSRDQMALLLESRRAVFSGPINLVQGGQGLAARIPIFENDTGRVWGVISTILDLDRLYTAIGLDSLPPEVVFALSTTGSGNIDKGLFFGEPDAAWQEPVSTTMAMPGFSWKLYAQPADGWPDHPDSPWLLRSLLGLVTLIIIAGTLWITTLILRDRQMQLRFWGLFELAPFGIALYDAISGELLQANPGFTRILDSKANNIGYFDDVRSLSGDKQRSEPSISNRLASQVRFTGVEGFFPMADGTLQPLMLHGLRLDLQGKESVIWIIVEDISQRKEAERLKSEFISTVSHELRTPLTSISGALSLLTTNAVGELSGKAQQLLKIAQRNSDQLGFLINDLLDIEKLIAGKMDFNVIEFPVSEAITESLENIQNYATEKNITLNAQELSTTTVKADKQRLAQALNNILSNAIKFSPVNGQIRIWTKLHGQGLRIYVQDEGPGIAPEFRERMFQKFSQADSSDRRSKGGTGLGLAITKELMARMEGDVDFTSEAGQGATFWLEVPAA” the entry was “failed”; with “MSTRSARIVVVSSRAAAGVYTDDCGPIIAGWLEQHGFSSVQPQVVADGNPVGEALHDAVNAGVDVIITSGGTGISPTDTTPEHTVAVLDYVIPGLADAIRRSGLPKVPTSVLSRGVCGVAGRTLIINLPGSPGGVRDGLGVLADVLDHALEQIAGGDHPR”, “not failed”; with “MSTSEDTLRTSPDTFDADSVTSKGAPQEHARQVSGMFGRIARWYDLLNHVLSGGLDLYWRYRLVRQVVPGPTGRVLDLAAGTLDVAREIHRQHPGMRVPALDFCEAMLRAGQPKLVDGVQDVIWPAVADGRRLPLADASVDCVTIAFGIRNIVPRREAFEEMLRVLVPGGRACILEFGTGKTPVWKGLYNFYLNTLLPLVGRCVSGDAGAYRYLADTIMSFPDADALAAEMHDAGFTRVYHLPLTSGIVRLHVGEKPL”, “failed”. With “MSTSKAITLTLFIATTLLAPCNAAANATTKPLFPAILIFGDSTVDTGNNNYPLPTIFRAEHFPYGMDLPDGKANGRFSNGKLISDIIATKLNIKEFIPPFLQPNLSDQDILTGVCFASAGAGYDDLTSLSTQAIRVSEQPNMFKSYIARLKGIVGDKKAMEIINNAFVVVSAGPNDFILNYYEIPSRRLEYPFISGYQDFILKRLENFVRELYSLGVRNVLVGGLPPMGCLPIHMTAKFRNIFRFCLEHHNKDSVLYNEKLQNLLPQIEASLPGSKFLYADVYNPMMEMIQNPSKYGFKETKRGCCGTGFLETSFMCNVFSPVCQNRSEFLFFDSIHPSEATYNVIGNLLDPLIRGKFQA” the entry was “failed”; with “MSTSWRIRIMLTIHAKLVEAMLAQAHKDHPFEICGVIAGPEKSNLPLRLIPMRNAAQSETFFKFDPQEQLQVWREMEARGEEPIVIYHSHTHTPAYPSRTDVQYASQPQSHYVIVPTDPAYGEEIRSFRILDGMVTEERIRMINSYKAEWELSMEAMVALEHHHHHH”, “not failed”; with “MSTTGRIHSFESCGTVDGPGIRFIVFLQGCLMRCKYCHNRDTWDTHDGKEVTVEEIIAEAKSYRHFMNASGGGITCSGGEAMLQPEFVRDFFRAAHAEGIHTCLDTNGYIRKHTEVIDEVLDATDLVMLDIKHMKDEIHQDFIGVSNRRTLDFARYLHKIGQKTWIRYVVVPGYTDDPEAAHMLGEFIKDMDNIEKVELLPYHKLGAHKWEALGLEYPLEGVNPPSKETMDEIQSILSQYHSNVKYLEHHHHHH”, “failed”. On to “MSTTTRISTAERLGRALGRGWRAYARSERRASNWLVSKGVPLAAAAALLWAGKLAVLGLLLYVAFWLALLLVALVFVARGHDTVEWEPPEPEWRHGHAGFGLYTHDEYRIDSHDPSDET”, for which the protein production entry is recorded as “failed”.
